These results are taken from patent US7763708B2, “Methods and compositions for modulating C5-a-mediated inflammatory responses” (Institute for Protein Science Co., Ltd., priority 2004, dated 2010).

Several values for one entry are separate records, joined by “and”; a condition that tells them apart may be missing. Equal entries are not always repeated. Entries after “also recorded” stand apart in the source; their conditions may differ.

One experiment deals with T1, C5a (Homo sapiens, UniProt P01031).
T1 sequence (P01031 678-751 limits assumed): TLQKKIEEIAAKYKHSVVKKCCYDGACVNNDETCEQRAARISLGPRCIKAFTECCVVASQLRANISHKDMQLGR
In words: Intracellular Ca++ mobilization in neutrophils triggered by C5a (calcium imaging). Type of experiment: cell-based. As to conditions: 0.7 nM C5a, human neutrophils. How it is done: Neutrophils were isolated from fresh human blood with 0.2% EDTA as an anticoagulant. Whole blood was collected from a healthy volunteer (a collaborator of this study) via vein puncture. A 2.4 ml aliquot of blood was then layered onto 2 ml Mono-Poly Resolving Medium (Dainihon Seiyaku, Tokyo, Japan) in a centrifuge tube and centrifuged at 400 g for 20 min at room temperature. The polymorphonuclear leukocytes (neutrophils) were then harvested and the cell fraction was washed with Hanks' balanced salt solution (HBSS).
The isolated neutrophils were loaded with 2 μM Fura-2/AM (Molecular Probes, Eugene, Oreg.) mixed with 0.02% Pluronic F-127 (Molecular Probes) and 0.2% DMSO in HBSS for 40 min at 37° C. The suspension was agitated to prevent sedimentation. After loading, the cells were washed with HBSS twice and suspended in HBSS containing 0.3% BSA (HBSS/BSA). Approximately 1×10^6 cells in 900 μl HBSS/BSA were added to a poly-L-lysine-coated 35 mm Petri dish and allowed to attach to the bottom of the dish for 30 min. Changes in intracellular calcium concentrations in response to C5a or a mixture of peptides (C-peptides and C5a) were determined by monitoring the ratio of fluorescence light emission at 5I0 nm as a result of excitation at 340 and 380 nm at 37° C. using an ARGUS HiSCA calcium imaging system (Hamamatsu Photonics, Hamamatsu, Japan). The mixture of peptides and C5a was incubated in an Eppendorf tube on ice for 30 min in the HBSS solution and then applied to the cells after a 2 min baseline recording.
The effect of C-peptides on C5a function was analyzed by measuring Ca^++ mobilization using an ARUGUS HiSCA calcium imaging system. Administration of 0.7 nM recombinant human C5a (RhC5a) induced a transient increase in the level of intracellular Ca^++ of human neutrophils (FIG. 3a). The level of this activation was about 50% of the maximum achieved with higher concentrations of C5a. A mixture of C-peptide and C5a was incubated in an Eppendorf tube on ice for 30 min in the HBSS solution and then applied to the cells. […]

Experiment [1] has as its system Rat Lethal Shock Model (C5a-mediated). Kind of experiment: Rat lethal shock induced by anti-Crry antibody following LPS priming. Type of experiment: in vivo. As to conditions: 4 mg/kg i.v. 10 min before anti-Crry mAb. How it is done: Administration of anti-rat Crry mAb (5I2) (Takizawa et al., J. Immunol. 152:3032, 1994) induces lethal shock in rats primed with a trace amount of lipopolysaccharide (LPS) (Matsuo et al., J. Exp. Med. 180:1619, 1994; Mizuno et al., J. Immunol. 162:5477, 1999). With this model, all rats sensitized with 0.05 mg/kg of LPS died within 30 min of injection of mAb 512. Male Wistar rats weighing about 250 g were purchased from Chubu Kagaku Shizai (Nagoya, Japan) and were allowed free access to food and water. Each rat was injected with 0.05 mg/kg of LPS, prepared from a phenol extraction of Salmonella typhosa (Sigma Chemical Co., St. Louis, Mo.) in 250 μl saline. Then, 0.75 mg/kg of 5I2 was administered 20 h later. Ten minutes before the injection of 5I2, saline or C-peptides in saline were injected. All injections were intravenously administered through the tail vein. Animal experiments were carried out according to Nagoya City University Guideline for the Care and Use of Experimental Animals and approved by the Nagoya City University Graduate School of Medical Sciences Animal Care Committee.
Administration of 0.75 mg/kg anti-rat Crry monoclonal antibody (Takizawa et al., J. Immunol. 152:3032, 1994) induces rapid lethal shock in rats primed with 0.05 mg/kg of LPS 20 h earlier (Matsuo et al., J. Exp. Med. 180:1619, 1994; Mizuno et al., J. Immunol. 162:5477, 1999). […] In order to investigate the inhibitory effect of the C-peptides in this model, we injected rats with saline (for the control) or C-peptides in 250 μl of saline 10 min before the 5I2 injection. All rats injected with saline died within 30 min (Table 1). However, all rats injected with 4 mg/kg of Pep-A survived. […] Some of the surviving rats stopped breathing briefly in the first 1 or 2 min after injection of 5I2, but were soon breathing again and about 20-40 min later began moving.

As for ASTAPARAGLPRLPKFF [Pep-B], the “Inhibition of C5a-triggered Ca++ mobilization” value with C5a (70 nM C-peptide) and in the experiment with C5a (700 nM C-peptide) was “failed to cause inhibition; also recorded: no inhibition” throughout. The “Survival rate (%)” value in experiment [1] was determined as 0%. For the same sequence, in experiment [1], the “Surviving/total number of rats” value was “died and 0/4”.
